Data as given in patent US10800847.

Experiments:
[1] = target: HLA-Cw*0303 (Cw9) (human); assay: Luminex, iBead vs regular bead MFI, 1:8
[2] = target: HLA-Cw*1203 (Cw12) (human); assay: Luminex, iBead vs regular bead MFI, 1:8
[3] = target: HLA-Cw*0702 (Cw7) (human); assay: Luminex, iBead vs regular bead MFI, 1:8
[4] = target: HLA-Cw*1502 (Cw15) (human); assay: Luminex, iBead vs regular bead MFI, 1:8
[5] = target: HLA-Cw*1802 (Cw18) (human); assay: Luminex, iBead vs regular bead MFI, 1:8
[6] = target: HLA-Cw*0304 (Cw10) (human); assay: Luminex, iBead vs regular bead MFI, 1:8
[7] = target: HLA-Cw*0102 (Cw1) (human); assay: Luminex, iBead vs regular bead MFI, 1:8
[8] = target: HLA-Cw*0602 (Cw6) (human); assay: Luminex, iBead vs regular bead MFI, 1:8
[9] = target: HLA-Cw*1701 (Cw17) (human); assay: Luminex, iBead vs regular bead MFI, 1:8
[10] = target: HLA-Cw*0302 (Cw10) (human); assay: Luminex, iBead vs regular bead MFI, 1:8
[11] = target: HLA-Cw*0202 (Cw2) (human); assay: Luminex, iBead vs regular bead MFI, 1:8
[12] = target: HLA-Cw*0801 (Cw8) (human); assay: Luminex, iBead vs regular bead MFI, 1:8
[13] = target: Albumin (negative control beads) (human or bovine); assay: Luminex, iBead vs regular bead MFI, 1:8
[14] = target: HLA-B*8201 (B82) (human); assay: Luminex, iBead vs regular bead MFI, 1:8
[15] = target: HLA-Cw*0401 (Cw4) (human); assay: Luminex, iBead vs regular bead MFI, 1:8
[16] = target: HLA-Cw*0501 (Cw5) (human); assay: Luminex, iBead vs regular bead MFI, 1:8
[17] = target: HLA-Cw*1601 (Cw16) (human); assay: Luminex, iBead vs regular bead MFI, 1:8
[18] = target: HLA-A*6802 (A68) single antigen on Luminex beads (human); assay: Luminex single antigen bead assay, iBeads (#6), IVIg 1:8
[19] = target: HLA-A*6901 (A69) single antigen on Luminex beads (human); assay: as above
[20] = target: HLA-A*8001 (A80) single antigen on Luminex beads (human); assay: as above
[21] = target: HLA-B*1401 (B64) (human); assay: iBead MFI against regular-bead MFI, IVIg diluted 1:8
[22] = target: HLA-B*1512 (B76) (human); assay: as above
[23] = target: HLA-B*0702 (B7) (human); assay: as above
[24] = target: HLA-B*1301 (B13) (human); assay: as above
[25] = target: HLA-B*1801 (B18) (human); assay: as above
[26] = target: HLA-B*1402 (B65) (human); assay: as above
[27] = target: Serum albumin on negative control beads (HSA/BSA) (human or bovine); assay: as above
[28] = target: HLA-B*1510 (B71) (human); assay: as above
[29] = target: HLA-B*1501 (B62) (human); assay: as above
[30] = target: HLA-B*0801 (B8) (human); assay: as above
[31] = target: HLA-B*1502 (B75) (human); assay: as above
[32] = target: HLA-A*6901 (A69) single antigen on Luminex beads (human); assay: Luminex single antigen bead assay, regular beads (#7), IVIg 1:8
[33] = target: HLA-A*7401 (A74) single antigen on Luminex beads (human); assay: as above
[34] = target: HLA-A*8001 (A80) single antigen on Luminex beads (human); assay: as above
[35] = target: HLA-B*1511 (B75) (human); assay: Luminex regular beads (#7), IVIg diluted 1:8
[36] = target: HLA-B*1516 (B63) (human); assay: Luminex regular beads (#7), IVIg diluted 1:8
[37] = target: HLA-B*1302 (B13) (human); assay: Luminex regular beads (#7), IVIg diluted 1:8
[38] = target: HLA-B*1301 (B13) (human); assay: Luminex regular beads (#7), IVIg diluted 1:8
[39] = target: HLA-B*1402 (B65) (human); assay: Luminex regular beads (#7), IVIg diluted 1:8
[40] = target: Serum albumin on negative control beads (HSA/BSA) (human or bovine); assay: Luminex regular beads (#7), IVIg diluted 1:8
[41] = target: HLA-B*1510 (B71) (human); assay: Luminex regular beads (#7), IVIg diluted 1:8
[42] = target: HLA-B*0801 (B8) (human); assay: Luminex regular beads (#7), IVIg diluted 1:8
[43] = target: HLA-B*1502 (B75) (human); assay: Luminex regular beads (#7), IVIg diluted 1:8
[44] = target: HLA-Cw*1402 (Cw14) (human); assay: Luminex, iBead vs regular bead MFI, 1:8
[45] = target: HLA-B*1513 (B77) (human); assay: iBead MFI against regular-bead MFI, IVIg diluted 1:8
[46] = target: HLA-B*1512 (B76) (human); assay: Luminex regular beads (#7), IVIg diluted 1:8

IVIg Gamunex-C Lot NKLK1 (antibody) was tested, and the Difference % [1] was -45%, the Difference % [2] was -65% and the Difference % [3] was -77%. The Difference % [4] was -68%, the Difference % [5] was -79% and the Difference % [6] was -59%. The Difference % [7] was -75%, the Difference % [8] was -80% and the Difference % [9] was -42%. The Difference % [10] was -57%, the Difference % [11] was -59% and the Difference % [12] was -90%. It also gave a Difference % [13] of -24%, a Difference % [14] of -104% and a Difference % [15] of -71%. The Difference % [16] was -66%, the Difference % [17] was -77% and the MFI [18] was 1950 MFI. The MFI [19] was 2880 MFI, the MFI [20] was 1190 MFI and the Difference % (iBead vs regular bead) [21] was -82%. The Difference % (iBead vs regular bead) [22] was 51%, the Difference % (iBead vs regular bead) [23] was -100% and the Difference % (iBead vs regular bead) [24] was -71%. The Difference % (iBead vs regular bead) [25] was -100%, the Difference % (iBead vs regular bead) [26] was -100% and the Difference % (iBead vs regular bead) [27] was -24%. For the same substance, the Difference % (iBead vs regular bead) [28] was -79%, the Difference % (iBead vs regular bead) [29] was 253% and the Difference % (iBead vs regular bead) [30] was -100%. It also gave a Difference % (iBead vs regular bead) [31] of -94%, an MFI [32] of 2780 MFI and an MFI [33] of 224 MFI. The MFI [34] was 1680 MFI, the MFI [35] was 3820 MFI and the MFI [36] was 3130 MFI. For the same substance, the MFI [37] was 2530 MFI, the MFI [38] was 3520 MFI and the MFI [39] was 1440 MFI. For the same substance, the MFI [40] was 10300 MFI, the MFI [41] was 1620 MFI and the MFI [42] was 1760 MFI. It also gave an MFI [43] of 1540 MFI.

Substance “IVIg Octagam (Octapharma, Lachen, Switzerland) (antibody)” has a Difference % [1] of -64%, a Difference % [3] of -89% and a Difference % [4] of -95%. For the same substance, the Difference % [5] was -92%, the Difference % [6] was -74% and the Difference % [7] was -77%. The Difference % [8] was -96%, the Difference % [9] was -70% and the Difference % [10] was -79%. The Difference % [11] was -80%, the Difference % [12] was -85% and the Difference % [13] was -29%. The Difference % [14] was -90%, the Difference % [44] was -88% and the Difference % [15] was -80%. It also gave a Difference % [16] of -83%, a Difference % [17] of -88% and an MFI [18] of 489 MFI. For the same substance, the MFI [19] was 814 MFI, the MFI [20] was 845 MFI and the Difference % (iBead vs regular bead) [21] was -96%. It also gave a Difference % (iBead vs regular bead) [22] of 23%, a Difference % (iBead vs regular bead) [23] of -100% and a Difference % (iBead vs regular bead) [24] of -99%. It also gave a Difference % (iBead vs regular bead) [25] of -100%, a Difference % (iBead vs regular bead) [26] of -100% and a Difference % (iBead vs regular bead) [27] of -29%. For the same substance, the Difference % (iBead vs regular bead) [45] was -89%, the Difference % (iBead vs regular bead) [28] was -100% and the Difference % (iBead vs regular bead) [29] was -100%. The Difference % (iBead vs regular bead) [30] was -95%, the Difference % (iBead vs regular bead) [31] was -100% and the MFI [32] was 1720 MFI. For the same substance, the MFI [33] was 201 MFI, the MFI [34] was 2290 MFI and the MFI [46] was 1130 MFI. It also gave an MFI [35] of 3640 MFI, an MFI [36] of 3130 MFI and an MFI [37] of 1940 MFI. For the same substance, the MFI [38] was 3680 MFI, the MFI [39] was 1460 MFI and the MFI [40] was 2340 MFI. For the same substance, the MFI [41] was 1290 MFI, the MFI [42] was 2120 MFI and the MFI [43] was 861 MFI.
